This is an account of results in publication PMC9954413 (Cancers, 2023).

Sequences and labels used below:
B1: Arkadia (RNF111) LONG, residues 876-994 (Ark LONG, 119 aa) (domain or fragment, human, UniProt Q6ZNA4 876-994, looked up)
chain: FRGNFEELIHLEERLGNVNRGASQGTIERCTYPHKYKKVTTDWFSQRKLHCKQDGEEGTEEDTEEKCTICLSILEEGEDVRRLPCMHLFHQVCVDQWLITNKKCPICRVDIEAQLPSES
notes: human Arkadia (RNF111), residues 876-994, 119 aa; RING domain with the non-RING elements; also called wt Ark LONG; source: expressed and purified as described elsewhere [31]
B2: Arkadia (RNF111) RING, residues 927-994 (Ark RING, 68 aa) (domain or fragment, human, UniProt Q6ZNA4 927-994, looked up)
chain: KQDGEEGTEEDTEEKCTICLSILEEGEDVRRLPCMHLFHQVCVDQWLITNKKCPICRVDIEAQLPSES
notes: human Arkadia (RNF111), residues 927-994, 68 aa; also called wt Ark RING; source: expressed and purified as described elsewhere [31]
B5: UbcH13 (UBE2N) (enzyme, human)
chain: MAGLPRRIIKETQRLLAEPVPGIKAEPDESNARYFHVVIAGPQDSPFEGGTFKLELFLPEEYPMAAPKVRFMTKIYHPNVDKLGRICLDILKDKWSPALQIRTVLLSIQALLSAPNPDDPLANDVAEQWKTNEAQAIETARAWTRLYAMNNI
notes: human UbcH13 (UBE2N), E2 ubiquitin-conjugating enzyme; also called UbcH13 E2 enzyme

Assay in all cases: ITC; 1-3 mM E2 in the syringe injected (2 uL, 15-19 injections) into 100-300 uM Arkadia polypeptide in the cell; 25 °C; 50 mM KH2PO4, 50 mM K2HPO4 pH 7; single-site model
Conditions in all cases: both partners purified
In general terms: ITC needs no label: the signal is the heat of the interaction.

One experiment has as its target T1, UbcH7 (UBE2L3) (human, UniProt P68036 1-154).
T1 construct: human UbcH7 (UBE2L3), E2 ubiquitin-conjugating enzyme; also called wt UbcH7; source: expressed and purified as described elsewhere [21,32]

The experiment “UbcH13 (UBE2N)” has as its target B5.
The target of another experiment is T2, UbcH5B (UBE2D2) (human, UniProt P62837 1-147).
T2 construct: His6-tag cleaved with thrombin; also called wt UbcH5B; wt E2

The next experiment addresses T3, UbcH7 K96S (human, UniProt P68036 1-154, K96S).
T3 construct: human UbcH7 (UBE2L3) with K96S (KPA motif changed to SPA); also called mutant UbcH7; source: site-directed mutagenesis; expressed and purified as the wild type

For experiment [1], the target named is B2.
For experiment [2], the target named is B1.

For orientation: Kd means the equilibrium constant for the complex coming apart. B1: the equilibrium dissociation constant (Kd) with UbcH7 (UBE2L3) came out at 4.3 ± 0.5 µM; with UbcH13 (UBE2N), 51.9 ± 5 µM; with UbcH5B (UBE2D2) it was 2.7 ± 0.5 µM.
Turning to B2, the equilibrium dissociation constant (Kd) is 27.3 ± 2 µM in the experiment with UbcH7 (UBE2L3), 264 ± 46 µM with UbcH13 (UBE2N) and 10.2 ± 0.6 µM with UbcH7 K96S.

B3: Arkadia LONG R983A (domain or fragment)
chain: FRGNFEELIHLEERLGNVNRGASQGTIERCTYPHKYKKVTTDWFSQRKLHCKQDGEEGTEEDTEEKCTICLSILEEGEDVRRLPCMHLFHQVCVDQWLITNKKCPICAVDIEAQLPSES
notes: human Arkadia (RNF111), residues 876-994, with R983A; also called Ark LONG R983A; source: site-directed mutagenesis; expressed and purified as the wild type
As to B3, in the experiment with UbcH5B (UBE2D2), binding was put at a Kd of 8.4 ± 0.4 µM.

B4: Arkadia LONG R983K (domain or fragment)
chain: FRGNFEELIHLEERLGNVNRGASQGTIERCTYPHKYKKVTTDWFSQRKLHCKQDGEEGTEEDTEEKCTICLSILEEGEDVRRLPCMHLFHQVCVDQWLITNKKCPICKVDIEAQLPSES
notes: human Arkadia (RNF111), residues 876-994, with R983K; also called Ark LONG R983K; source: site-directed mutagenesis; expressed and purified as the wild type
Molecule B4 came in with a dissociation constant Kd with UbcH5B (UBE2D2) of 5.5 ± 0.6 µM.
What is called stoichiometry N is a count of units in the complex or per binding partner. In the case of B5, in experiment [1], the dH is 3.4 kcal/mol and the “stoichiometry N” value came out at 1.1. For the same molecule, in experiment [2], the dH is -2.3 kcal/mol and the “stoichiometry N” value amounted to 0.9.
